Results published in paper PMC6378327, “Modes of Accessing Bicarbonate for the Regulation of Membrane Guanylate Cyclase (ROS-GC) in Retinal Rods and Cones” (eNeuro, 2019).

Target: the molecule itself
Assay: SEC + other: gel electrophoresis without reducing agents; purified fragment in solution; molecular weight markers during FPLC elution (Superdex 200) and gel electrophoresis performed without reducing agents

B1: core catalytic domain fragment of bovine ROS-GC1 (G817-Y965) (domain or fragment)
chain: not shown
notes: bovine ROS-GC1 (retinal membrane guanylate cyclase 1), core catalytic domain, G817-Y965; numbers count on: the mature protein (according to Goraczniak et al., 1994); Cloned into the BglII/NcoI site of pET30Xa/LIC (Novagen); Residue numbers are on the mature protein, so they are shifted by the length of the signal peptide relative to the precursor entry; also called ROS-GC1 fragment; soluble …
**Q.** Which “stoichiometry N” value does the source give for B1 here?
**A.** 2
